Data: US20220306765A1
pKd: −log10 of the molar value.

Tests used:
[1] = biological target: human FcγRI (human) (UniProt P12314); test: BLI (Octet), receptor on sensor
[2] = biological target: human FcγRIIIa-F176 (human) (UniProt P08637); test: BLI (Octet), receptor on sensor
[3] = biological target: human FcγRIIIa-V176 (human) (UniProt P08637); test: BLI (Octet), receptor on sensor
[4] = biological target: human FcγRIIIb-NA1 (human) (UniProt O75015); test: BLI (Octet), receptor on sensor
[5] = biological target: human FcγRIIIb-NA2 (human) (UniProt O75015); test: BLI (Octet), receptor on sensor
human FcγRIIIb-NA2 (human), sequence (O75015 17-200 N65S limits assumed): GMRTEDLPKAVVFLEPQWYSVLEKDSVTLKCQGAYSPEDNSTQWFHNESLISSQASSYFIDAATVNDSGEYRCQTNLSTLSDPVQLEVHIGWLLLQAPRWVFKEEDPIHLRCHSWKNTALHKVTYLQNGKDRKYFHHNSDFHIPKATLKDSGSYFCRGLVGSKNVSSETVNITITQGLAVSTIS

[6] = biological target: human FcγRIIa-H167 (human) (UniProt P12318); test: BLI (Octet), receptor on sensor
human FcγRIIa-H167 (human), sequence (P12318 36-218 limits assumed): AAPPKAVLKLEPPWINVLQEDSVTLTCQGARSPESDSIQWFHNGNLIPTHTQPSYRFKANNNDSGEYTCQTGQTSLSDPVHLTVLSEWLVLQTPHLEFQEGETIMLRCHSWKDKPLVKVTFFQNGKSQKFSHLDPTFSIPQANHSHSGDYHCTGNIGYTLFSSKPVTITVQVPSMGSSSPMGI

[7] = biological target: human FcγRIIa-R167 (human) (UniProt P12318); test: BLI (Octet), receptor on sensor
human FcγRIIa-R167 (human), sequence (P12318 36-218 H167R limits assumed): as the sequence (P12318 36-218 limits assumed) above, with H132R counted along it

[8] = biological target: human FcγRIIb (human) (UniProt P31994); test: BLI (Octet), receptor on sensor
human FcγRIIb (human), sequence (P31994 46-217 limits assumed): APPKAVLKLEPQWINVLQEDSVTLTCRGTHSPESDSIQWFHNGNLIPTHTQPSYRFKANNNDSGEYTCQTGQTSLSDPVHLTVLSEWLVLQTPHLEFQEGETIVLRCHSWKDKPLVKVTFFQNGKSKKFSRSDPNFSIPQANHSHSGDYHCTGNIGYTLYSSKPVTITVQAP

[9] = biological target: Human FcRn (FCGRT&B2M) Protein (human) (UniProt P55899); test: BLI (Octet), FcRn on sensor, pH 6.0
[10] = biological target: human FcγRIIIa-F176 (human) (UniProt P08637); test: BLI (Octet RED96), biotinylated receptor on SA sensor
[11] = biological target: human FcγRIIIa-V176 (human) (UniProt P08637); test: as above
[12] = biological target: Human FcRn (FCGRT&B2M) Protein (human) (UniProt P55899); test: BLI (Octet RED96), His-tagged FcRn on Ni-NTA sensor, pH 6.0
[13] = biological target: human C1q (human) (UniProt P02745); test: BLI (Octet), biotinylated antibody on sensor, C1q in solution
human C1q (human), sequence (P02745 23-245, chain 1 of 3): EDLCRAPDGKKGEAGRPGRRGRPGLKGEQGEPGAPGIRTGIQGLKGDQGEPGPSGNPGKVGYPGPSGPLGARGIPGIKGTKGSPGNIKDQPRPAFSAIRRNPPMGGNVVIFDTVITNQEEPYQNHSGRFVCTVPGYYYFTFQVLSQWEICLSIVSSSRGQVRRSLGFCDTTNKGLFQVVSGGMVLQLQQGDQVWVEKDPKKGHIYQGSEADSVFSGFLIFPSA
human C1q (human), sequence (P02746 28-253, chain 2 of 3, further chain): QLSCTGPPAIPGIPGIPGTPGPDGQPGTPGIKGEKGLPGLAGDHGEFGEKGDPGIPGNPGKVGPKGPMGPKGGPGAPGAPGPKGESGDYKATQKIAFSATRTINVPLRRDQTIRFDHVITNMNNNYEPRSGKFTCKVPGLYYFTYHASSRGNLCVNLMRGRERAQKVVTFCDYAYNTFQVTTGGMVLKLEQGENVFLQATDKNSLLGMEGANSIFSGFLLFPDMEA
human C1q (human), sequence (P02747 29-245, chain 3 of 3, further chain): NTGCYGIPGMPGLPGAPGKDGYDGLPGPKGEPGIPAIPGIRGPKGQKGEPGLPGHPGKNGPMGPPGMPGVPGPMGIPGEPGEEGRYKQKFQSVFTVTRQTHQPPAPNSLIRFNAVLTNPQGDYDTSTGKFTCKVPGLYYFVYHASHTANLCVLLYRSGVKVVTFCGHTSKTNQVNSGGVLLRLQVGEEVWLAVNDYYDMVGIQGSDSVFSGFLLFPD

[14] = biological target: human C1q (human) (UniProt P02745); test: BLI (Octet RED96), biotinylated antibody on SA sensor, C1q in solution
[15] = biological target: human CLDN18.2 (human); test: flow cytometry on NCI-H146 cells; unit taken from the concentration axis; fit of the flat control curve

human FcγRIIIa-F176 (human), sequence (P08637 17-208 limits assumed): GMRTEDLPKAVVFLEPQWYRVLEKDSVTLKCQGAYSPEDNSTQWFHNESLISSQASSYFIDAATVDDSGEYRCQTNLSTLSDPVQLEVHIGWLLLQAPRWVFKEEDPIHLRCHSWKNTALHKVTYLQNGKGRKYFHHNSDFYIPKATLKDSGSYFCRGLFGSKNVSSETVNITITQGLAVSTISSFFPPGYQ
human FcγRIIIa-V176 (human), sequence (P08637 17-208 F176V limits assumed): as the sequence (P08637 17-208 limits assumed) above, with F160V counted along it
human FcγRIIIb-NA1 (human), sequence (O75015 other isoform, or with tags, fused parts or gaps limits assumed): as the sequence (O75015 17-200 N65S limits assumed) above, with S20R, S49N, N66D, I90V counted along it
human FcγRI (human), sequence (P12314 16-288 limits assumed): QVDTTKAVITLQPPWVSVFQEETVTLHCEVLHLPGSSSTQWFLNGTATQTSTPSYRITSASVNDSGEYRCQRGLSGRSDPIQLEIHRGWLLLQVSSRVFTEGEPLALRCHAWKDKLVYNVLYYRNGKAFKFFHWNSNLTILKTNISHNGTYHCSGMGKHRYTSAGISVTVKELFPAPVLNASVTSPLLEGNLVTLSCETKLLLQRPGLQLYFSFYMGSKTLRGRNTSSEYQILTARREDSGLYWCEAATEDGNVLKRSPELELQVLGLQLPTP

| pKd [1] | pKd [2] | pKd [3] | pKd [4] | pKd [5] | pKd [6] | pKd [7] | pKd [8] | pKd [9] | pKd [10] | pKd [11] | pKd [12] | pKd [13] | pKd [14] | EC50 [15] [µg/mL] | Substance |
| --- | --- | --- | --- | --- | --- | --- | --- | --- | --- | --- | --- | --- | --- | --- | --- |
| 8.28 | 6.63 | 7.21 | 5.40 | 5.50 | 6.71 | 6.93 | 6.64 | 7.98 | 6.63 | 7.21 | 7.98 | 7.67 | 7.67 | – | IMAB362 (antibody) |
| – | – | – | – | – | – | – | – | – | – | – | – | – | – | 3.67 | Isotype Control (antibody) |
